Assay in all cases: SPR (BIACORE 3000), hGLP-1R/GST amine-coupled to CM5 chip, 1:1 Langmuir fit
(Surface plasmon resonance follows binding to a sensor surface in real time, without labels.)

In assay [1] the target is DA-exendin-4-propyl-amide. The procedure: (§1) The binding activity of the GLP-1 receptor and the insulinotropic peptide derivative with a modified N-terminal charge were measured using a surface plasmon resonance (SPR) apparatus (BIACORE 3000, GE Healthcare).
(§2) The GLP-1 receptor was expressed from CHO-DG44 cells in hGLP-1R/GST form. The expressed hGLP-1R/GST was immobilized to a CM5 chip by amine coupling. To the hGLP-1R/GST-immobilized CM5 chip, the insulinotropic peptide derivatives with a modified N-terminal charge were diluted by concentration and then added to determine the binding activity with the GLP-1 receptor.

In assay [2] the target is Native exendin-4 (exenatide: BYETTA). The method, then: as §1, §2
The target in assay [3] is desamino-histidyl-exendin-4 (DA-exendin-4). The method, then:
as §1, §2

The target in assay [4] is imidazoacetyl-exendin-4 (CA-exendin-4). The procedure:
as §1, §2

Assay [5] has as its target beta-hydroxy imidazopropionyl-exendin-4 (HY-exendin-4). The method, then:
as §1, §2

B1: hGLP-1R/GST (receptor)
chain: RPQGATVSLWETVQKWREYRRQCQRSLTEDPPPATDLFCNRTFDEYACWPDGEPGSFVNVSCPWYLPWASSVPQGHVYRFCTAEGLWLQKDNSSLPWRDLSECEESKRGERSSPEEQLLFLY
notes: Expressed from CHO-DG44 cells and immobilized on a CM5 chip by amine coupling; also called GLP-1 receptor; GLP-1 receptor in hGLP-1R/GST form; not shown: GST (glutathione S-transferase) fusion partner
B1: the Kd (in general, the equilibrium constant for the complex coming apart) in assay [1] stood at 0.0326 µM; in assay [2], 0.0014 µM; in assay [3], 0.0322 µM; in assay [4], 0.0263 µM; in assay [5] it was 0.0427 µM. In addition, the koff – broadly, a measure of how fast the partners let go of each other – in assay [1] was 0.00335 s⁻¹; in assay [2] it was 0.000526 s⁻¹; in assay [3], 0.00365 s⁻¹; in assay [4] it was 0.00315 s⁻¹; in assay [5], 0.00383 s⁻¹. Also, the kon (as a rule, a measure of how fast the partners come together) in assay [1] is 104000 M⁻¹ s⁻¹; in assay [2] it was 370000 M⁻¹ s⁻¹; in assay [3], 113000 M⁻¹ s⁻¹; in assay [4], 120000 M⁻¹ s⁻¹; in assay [5], 90000 M⁻¹ s⁻¹.

Source of the values: patent publication US20170226175A1 (HANMI PHARM, published 2017).
